The source of these data is article PMC7642358 (Nature Communications, 2020).

The chains are these.
B1: 18 (VHH)
VHH: QVQLVESGGGLVQAGGSLRLSCAASGFPVDYKSMWWYRQAPGKEREWVAAIDSAGDTTTYADSVKGRFTISRDNAKNTVYLQMNSLKPEDTAVYYCTVWVGTTYTGQGTQVTVS
B2: 32 (VHH)
VHH: QVQLVESGGGLVQAGGSLRLSCAASGFPVAHKSMWWYRQAPGKEREWVAAIESTGDTTRYADSVKGRFTISRDNAKNTVYLQMNSLKPEDTAVYYCVVWVGEVYRGQGTQVTVS
B3: 29 (VHH)
VHH: QVQLVESGGGLVQAGGSLRLSCAASGFPVHYTYMRWYRQAPGKEREWVAAIKSYGQHTTYADSVKGRFTISRDNAKNTVYLQMNSLKPEDTAVYYCEVVGETYRGQGTQVTVS
B4: 33 (VHH)
VHH: QVQLVESGGGLVQAGGSLRLSCAASGFPVKTAEMEWYRQAPGKEREWVAAISSTGKSTFYADSVKGRFTISRDNAKNTVYLQMNSLKPEDTAVYYCHVYVGRTYIGQGTQVTVS
B5: Sybody 2 (VHH)
VHH: QVQLVESGGGLVQAGGSLRLSCAASGFPVSNEEMTWYRQAPGKEREWVAAIASNGNQTEYADSVKGRFTISRDNAKNTVYLQMNSLKPEDTAVYYCYVYVGASYIGQGTQVTVS
B6: Sybody 3 (VHH)
VHH: QVQLVESGGGLVQAGGSLRLSCAASGFPVSHTEMTWYRQAPGKEREWVAAIESQGVYTHYADSVKGRFTISRDNAKNTVYLQMNSLKPDDTAVYYCYVYVGGGYIGQGTQVTVS
B7: Sybody 10 (VHH)
VHH: QVQLVESGGGLVQAGGSLRLSCAASGFPVESAEMEWYRQAPGKEREWVAAITSQGTITEYADSVKGRFTISRDNAKNTVYLQMNSLKPEDTAVYYCYVYVGASYIGQGTQVTVS
B8: 27 (VHH)
VHH: QVQLVESGGGLVQAGGSLRLSCAASGFPVKASEMVWYRQAPGKEREWVAAILSQGHATEYADSVKGRFTISRDNAKNTVYLQMNSLKPEDTAVYYCYVWVGRSYIGQGTQVTVS
B9: 19 (VHH)
VHH: QVQLVESGGGLVQAGGSLRLSCAASGFPVYNEEMTWYRQAPGKEREWVAAIASYGRLTEYADSVKGRFTISRDNAKNTVYLQMNSLKPEDTAVYYCYVYVGQSYIGQGTQVTVS
B10: 31 (VHH)
VHH: QVQLVESGGGLVQAGGSLRLSCAASGFPVWSAEMTWYRQAPGKEREWVAAINSHGRITEYADSVKGRFTISRDNAKNTVYLQMNGLKPEDTAVYYCYVYVGKSYIGQGTQVTVS
B11: Sybody 5 (VHH)
VHH: QVQLVESGGGLVQAGGSLRLSCAASGFPVAQQEMTWYRQAPGKEREWVAAISSIGSITHYADSVKGRFTISRDNAKNTVYLQMNSLKPEDTAVYYCYVYVGASYIGQGTQVTVS
B12: Sybody 17 (VHH)
VHH: QVQLVESGGGLVQAGGSLRLSCAASGFPVKASEMEWYRQAPGKEREWVAAIASIGYNTYYADSVKGRFTISRDNAKNTVYLQMNSLKPEDTAVYYCLVYVGATYIGQGTQVTVS
B13: 25 (VHH)
VHH: QVQLVESGGGLVQAGGSLRLSCAASGFPVESTEMTWYRQAPGKEREWVAAIESEGHGTEYADSVKGRFTISRDNAKNTVYLQMNSLKPEDTAVYYCYVYVGAGYIGQGTQVTVS
B14: 36 (VHH)
VHH: QVQLVESGGGLVQAGGSLRLSCAASGFPVEWKHMTWYRQAPGKEREWVAAIASTGAYTHYADSVKGRFTISRDNAKNTVYLQMNSLKPEDTAVYYCNVKDWGSKTTYYDYWGQGTQVTVS
B15: 38 (VHH)
VHH: QVQLVESGGGLVQAGGSLRLSCAASGFPVYWAHMTWYRQAPGKEREWVAAIVSSGAYTAYADSVKGRFTISRDNAKNTVYLQMNSLKPEDTAVYYCNVKDFGTQEHYYDYWGQGTQVTVS
B16: 22 (VHH)
VHH: QVQLVESGGGLVQAGGSLRLSCAASGFPVNHYEMEWYRQAPGREREWVAAIMDSTGYETAYADSVKGRFTISRDNAKNTVYLQMNSLKPEDTAVYYCYVYVGASYIGQGTQVTVS
B17: Sybody 8 (VHH)
VHH: QVQLVESGGGLVQAGGSLRLSCAASGFPVKSYEMEWYRQAPGKEREWVAAISSYGEYTEYADSVKGRFTISRDNAKNTVYLQMNSLKPEDTAVYYCYVWVGDSYLGQGTQVTVS
B18: Sybody 13 (VHH)
VHH: QVQLVESGGGLVQAGGSLRLSCAASGFPVENYYMRWYRQAPGKEREWVAAIESSGAETRYADSVKGRFTISRDNAKNTVYLQMNSLKPEDTAVYYCYVVVGWGYAGQGTQVTVS
B19: Sybody 6 (VHH)
VHH: QVQLVESGGGLVQAGGSLRLSCAASGFPVNHTRMYWYRQAPGKEREWVAAIQSHGQNTFYADSVKGRFTISRDNAKNTVYLQMNSLKPEDTAVYYCYVWVGNQYWGQGTQVTVS
B20: 35 (VHH)
VHH: QVQLVESGGGLVQAGGSLRLSCAASGFPVNYTIMFWYRQAPGKEREWVAAIKSTGEHTLYADSVKGRFTISRDNAKNTVYLQMNSLKPEDTAVYYCNVKDAGQGWQEYDYWGQGTQVTVS
B21: Sybody 9 (VHH)
VHH: QVQLVESGGGLVQAGGSLRLSCAASGFPVGQQHMYWYRQAPGKEREWVAAIYSYGHITKYADSVKGRFTISRDNAKNTVYLQMNSLKPEDTAVYYCWVYVGDYYEGQGTQVTVS
B22: Sybody 15 (VHH)
VHH: QVQLVESGGGLVQAGGSLRLSCAASGFPVYEHYMRWYRQAPGKEREWVAAIQSHGNHTAYADSVKGRFTISRDNAKNTVYLQMNSLKPEDTAVYYCFVVVGNGYTGQGTQVTVS
B23: 37 (VHH)
VHH: QVQLVESGGGLVQAGGSLRLSCAASGFPVYNTWMEWYRQAPGKEREWVAAITSYGFHTYYADSVKGRFTISRDNAKNTVYLQMNSLKPEDTAVYYCNVKDEGNTTAYYDYWGQGTQVTVS
B24: Sybody 1 (VHH)
VHH: QVQLVESGGGLVQAGGSLRLSCAASGFPVNTSEMAWYRQAPGKEREWVAAIESSGDETYYADSVKGRFTISRDNAKNTVYLQMNSLKPEDTAVYYCYVYVGGSYLGQGTQVTVS
B25: 30 (VHH)
VHH: QVQLVESGGGLVQAGGSLRLSCAASGFPVWYKEMEWYRQAPGKEREWVAAITSAGHHTYYADSVKGRFTISRDNAKNTVYLQMNSLKPEDTAVYYCYVYVGESYIGQGTQVTVS
B26: 21 (VHH)
VHH: QVQLVESGGGLVQAGGSLRLSCAASGFPVKESEMTWYRQARGKEREWVAAINSHGMTTHYADSVKGRFTISRDNAKNTVYLQMNSLKPEDTAVYYCYVYVGGSYIGQGTQVTVS
B27: 28 (VHH)
VHH: QVQLVESGGGLVQAGGSLRLSCAASGFPVYSAEMEWYRQAPGKEREWVAAISSYGTNTYYADSVKGRFTISRDNAKNTVYLQMNSLKPEDTAVYYCYVYVGSSYIGQGTQVTVS
B28: Sybody 16 (VHH)
VHH: QVQLVESGGGLVRAGGSLRLSCAASGFPVASQEMTWYRQAPGKEREWVAAISSSGRQTEYADSVKGRFTISRDNAKNTVYLQMNSLKPEDTAVYYCYVYVGGSYIGQGTQVTVS
B29: Sybody 7 (VHH)
VHH: QVQLVESGGGLVQAGGSLRLSCAASGFPVNAEEMEWYRQAPGKEREWVAAISSSGDWTYYADSVKGRFTISRDNAKNTVYLQMNSLKPEDTAVYYCLVYVGSTYIGQGTQVTVS
B30: Sybody 4 (VHH)
VHH: QVQLVESGGGLVQAGGSLRLSCAASGFPVNGFNMEWYRQAPGKEREWVAAITSEGNYTYYADSVKGRFTISRDNAKNTVYLQMNSLKPEDTAVYYCYVYVGQSYIGQGTQVTVS
B31: Sybody 14 (VHH)
VHH: QVQLVESGGGLVQAGGSLRLSCAASGFPVATAEMVWYRQAPGKEREWVAAIMSAGQETEYADSVKGRFTISRDNAKNTVYLQMNSLKPEDTAVYYCYVWVGKSYIGQGTQVTVS
B32: 24 (VHH)
VHH: QVQLVESGGGLVQAGGSLRLSCAASGFPVSTAEMEWYRQAPGKEREWVAAISSSGTWTYYADSVKGRFTISRDNAKNTVYLQMNSLKPEDTAVYYCYVWVGSSYLGQGTQVTVS
B33: Sybody 11 (VHH)
VHH: QVQLVESGGGLVQAGGSLRLSCAASGFPVRTENMHWYRQAPGKEREWVAAIYSFGATMLYADSVKGRFTISRDNAKNTVYLQMNSLKPEDTAVYYCAVNVGEWYEGQGTQVTVS

The experiment deals with SARS-CoV-2 spike receptor-binding domain (2019-nCoV RBD-SD1, residues 319–566) (SARS-CoV-2, UniProt P0DTC2).
On to B1, for which the binding result is “binds”.
Next, B2: “binds”.
To B3 belongs “binds”; to B4, “binds”; to B5, “binds”.
For the molecule B6, the binding result is reported as “binds”.
With B7, the binding result was “binds”.
B8: the binding result is reported as “binds”.
For the molecule B9, the binding result is “binds”.
Regarding B10, the binding result is recorded as “binds”.
Next, B11: “binds”; B12: “binds”.
Next, B13: “binds”.
For B14, the binding result was “binds”.
As to B15, the binding result is reported as “binds”.
For B16, the binding result is recorded as “binds”.
For B17, the binding result is “binds”.
As to B18, the binding result was “binds”.
Consider B19, for which the binding result is “binds”.
As to B20, the binding result was “binds”.
For the molecule B21, the binding result is listed as “binds”.
As for B22, the binding result is “binds”.
Regarding B23, the binding result is listed as “binds”.
To B24 belongs “binds”.
On to B25, for which the binding result is “binds”.
To B26 belongs “binds”; to B27, “binds”.
Turning to B28, the binding result is recorded as “binds”.
In the case of B29, the binding result is on record as “binds”.
As to B30, the binding result was “binds”.
Next, B31: “binds”; B32: “binds”; B33: “binds”.
